Experimental data as given in US12551573B2, “Compositions and methods for the targeting of PCSK9” (Scribe Therapeutics Inc., priority 2022, dated 2026).
Numbering of substitutions follows the chain as printed.

B1: DOMAIN_14714 (protein, listed as Odocoileus virginianus)
chain: PQESVTFEDVAVNFSYEEWQCLTHAQRHLYTDVMLENYGNMVSLGFSFSKPPLISRLEQGTEPYVQDRQDWEFLNCSYPAA
B2: DOMAIN_15089 (protein)
chain: SQELVAFEDVLVDFTPEEWQYLNSSQKTLYREVMLETYSNLVSVAGQQDTKPDLILKLELEGPCLAERKISVWSFPEEACQ
modifications: Vulpes vulpes
B3: DOMAIN_15669 (protein, listed as Callorhinus ursinus)
chain: FQDSVTFEDVAVRFSSGEWQCLTRAQRHLYADVMLENYWNVISVGFAVPKPPLISHLEQGAEPCVQDLQDGGFLSCSFPVS
B4: DOMAIN_15451 (protein)
chain: PLKLVTFEDVAVDFTQEEWSLLDKSQKNLFRNVMMETIHHLVSVGYQISKSDVISQLEQGKELWSKAAGGFQGQRPGEHQG
modifications: Bison bison
B5: DOMAIN_15406 (protein)
chain: MAFEDVAVYFSQEEWGLLDTAQRALYRRVMLDNFALVASLGLSTSRPRVVIQLERGEEPWVPSGKDMTLARNTYGRLNSGS
modifications: Pan troglodytes
B6: DOMAIN_15227 (protein, listed as Rhinopithecus roxellana)
chain: B5 chain with R28H, A35T, A38T, R48H, G75R, S79A, S81E
B7: DOMAIN_14746 (protein, listed as Odocoileus virginianus)
chain: VTELLTFKDISVDFTQEEWGQLAPAHRNLYREVMLENYGNLVSVAGCQLSKPSVISQLEKGEEPWMTEKEGAGDPSSDLKS
B8: DOMAIN_14983 (protein, listed as Rhinopithecus roxellana)
chain: B5 chain with K65T, M67T, T68V, A70S, G75R, L77R, S79P
B9: DOMAIN_15638 (protein, listed as Sapajus apella)
chain: B5 chain with K65T, L69M, A70S, Y74H, G75R, L77R, S81F
B10: DOMAIN_14946 (protein, listed as Acinonyx jubatus)
chain: LQVSVSFEDVTVNFSREEWQRLDPAQRRLYRDVTLENYSHLRSVGYQVPKPEVIFKLEQGEGPWTLEGETPHQSCSGEDIG
B11: DOMAIN_15269 (protein)
chain: YRGPVTFKDITVEFTREEWKLLDTAQRTLYREVMQENYSHLISVGYCANRPNAIFKLKQGKEPWILEVQFPRQKNPEDLCN
modifications: Ovis aries
B12: DOMAIN_14082 (protein)
chain: SPTLVTFKDIHVNFTREEWNLLDAAQQIMYKDVMLENYKNLVSVGHQLPKPDVILQLEKGEEPWLVERGVRQDTRPDWDTA
modifications: Phyllostomus discolor
B13: DOMAIN_15138 (protein)
chain: CEGSVSFEDVTMDFSREEWQQLDPAQRCLYQDVMLEIYSHLLFVGYNIPNPEIISRMEKGEEPWMREVQLPHQRHRERAFG
modifications: Vulpes vulpes
B14: DOMAIN_15800 (protein, listed as Otolemur garnettii)
chain: MAFEDVAVYFSQEEWGLLDTAQRALYRHVMLENFTLVSSLGLSTSRPRVVVQLERGEEPWVPSRIDSTPARNAQGRRNPGS
B15: DOMAIN_13691 (protein, listed as Sapajus apella)
chain: AQESVTFEDVAVNFTDREWQCLTYAQRHLYKDVMLENYGNMVSVGFLFPKPPLISHLERGVEPCVQDPQDRESLSCSCLVS
B16: DOMAIN_15279 (protein, listed as Callithrix jacchus)
chain: VNDLVTFKDVAIDFSQEEWQWMNPAQKRLYRSMMLENYQSLVSLGLCVSKPYVISLLEQGREPWEMTSEMRRSPFSDWESI
B17: DOMAIN_14287 (protein, listed as Bos indicus)
chain: VQGSVSFEDVAVGFSQEEWQILGPSQKALYWDVMLENYCNLVSVGYQAPTPNSLFQLEQGGPPWTVEGAALSPTCSGKKLY
B18: DOMAIN_14546 (protein)
chain: GLLSFEDVALYFTREEWDTLDWAQKALYRDVMLDNYRHIVSLGFPFPKPEVICQLEQWEEPWILDLPRAGTRKASGSACPD
modifications: Muntiacus muntjak
B19: DOMAIN_15356 (protein, listed as Acinonyx jubatus)
chain: TPDVVTFEDVAVCFSSGEWQCLTRAQRHLYTDVMLENYGNMLSAGLACPKPPLISHLEQGAVPCAEDLQDWGFLTCSFPVS
B20: DOMAIN_15251 (protein, listed as Callithrix jacchus)
chain: AAGRVTFEDVTVSFTKGEWQQLNPEQRELYRDVMLENYGNLVSVGLEETSKPSVILRLEEGKEPWSEEEVLRGGRPEKNWD
B21: DOMAIN_15184 (protein, listed as Acinonyx jubatus)
chain: ASVVFEDVAVNFTPEEWALLNPGQRKLYRDVMLETCRNLSAVGCRSQGNTSTPRPQWSILLNEPPGEDKTGIFTRKDSCSV
B22: DOMAIN_17317 (protein, listed as Otolemur garnettii)
chain: SQASVSFKDVNVEFTQDEWQQMGPAQRNLYRDVMLENYSNLVSVGYCIFKPKVIFRLEQGEEPWSSEEEFSSQRRPKNYRD
B23: DOMAIN_24125 (protein, listed as Saimiri boliviensis)
chain: B5 chain with S45T, K65T, L69M, A70S, T73A, Y74H, G75R, L77R, S79P
B24: DOMAIN_18563 (protein, listed as Aotus trivirgatus)
chain: IQGQVNFEDVFVYFSQEEWVLLDEAQRLLYRDVMLENFALMASLGHTSFTSHTVASLVMGPDWVDVTPAVATGTLSGSGPG
B25: DOMAIN_12755 (protein, listed as Oryctolagus cuniculus)
chain: SLGPVSFKDVAVGFTQEEWRQLEPAQRRTYREVMLENYSHLVAVGCHFIKPDVITKLERGEEPWIEGGFLPQGCADEVWQA
B26: DOMAIN_12550 (protein, listed as Ailuropoda melanoleuca)
chain: SDEAFSFEDLSVDFTQKEWQLLNPGQKDLYKDVMLENYSSLVSLGYEIMKPDVIFKLEQGEEPWIGDGEVPSSGCPADMSY
B27: DOMAIN_12901 (protein, listed as Macaca fascicularis)
chain: B5 chain with R28H, D32E, A35T, A38T, R48H, G75R, S79A, S81E
B28: DOMAIN_13121 (protein, listed as Macaca fascicularis)
chain: GKELLSFEDVAMYFTREEWGRLDWGQKDLYRDVMLENYRNMVLLGFQFPKPEVICQLENWDEQWILDLPRAGSRKASGSAC
B29: DOMAIN_12912 (protein)
chain: B10 chain with R21H
modifications: Puma concolor
B30: DOMAIN_13269 (protein, listed as Desmodus rotundus)
chain: B10 chain with N13D, R21H, R31W, R42L, F55L, G77D
B31: DOMAIN_13277 (protein, listed as Macaca fascicularis)
chain: MTFEDVSVEFTQGEWGQLNPAQKDLYREVMLENFRNLAFLGLPVSKPYVICQLEEGGEPFIVEREVSTGAYSDWERRSKSK
B32: DOMAIN_12231 (protein)
chain: PQESVAFEDVAVYFTAKEWDIMVPAERALYRDVMLENYEAVAFVVPPTSKPALVSHLEQGKESCFTRPQGVLCRNDWRAGL
modifications: Nomascus leucogenys
B33: DOMAIN_12590 (protein, listed as Bos indicus)
chain: AQEPVTFNDVAVDFTQEEWGQLDLVQRTLYRDVMLETYGHLLSVGNQITKPEVISLLEQGEEPWSMEPAYPLQGTCPAPEI
B34: DOMAIN_12896 (protein, listed as Macaca fascicularis)
chain: DTVVFEDVVVGFTLEEWALLNPAQRNLYREVMLETFKHLASVDNEAQPKTNGSISQQDTSGEKLSLKQKIEKFTRKHTWAS
B35: DOMAIN_12285 (protein, listed as Gorilla sp.)
chain: EPGAVSFADVAVYFCREEWGCLRPAQRTLYRDVMRETYGHLSALGIGGKKPALISWVEEEAELWGPAAQDPEVAKCPTQTD

These molecules were tested on HBEGF locus. Conditions: high-throughput screen of dXR repression of the HBEGF gene; abundance of each domain in the library before and after diphtheria toxin selection; HEK293T cells.
Format: cell-based, human

Molecule | Log2 (fold change)
B1 | 3.2752
B2 | 2.3585
B3 | 2.8865
B4 | 3.2905
B5 | 3.4616
B6 | 3.5532
B7 | 2.605
B8 | 3.704
B9 | 3.4277
B10 | 3.2842
B11 | 2.0839
B12 | 3.2495
B13 | 3.1771
B14 | 3.4462
B15 | 2.6205
B16 | 3.8574
B17 | 3.6232
B18 | 3.5039
B19 | 3.5466
B20 | 2.2209
B21 | 3.0092

Same assay, conditions: high-throughput screen of dXR repression of the HBEGF gene; change in abundance of each domain in the library before and after diphtheria toxin selection

Molecule | Log2 (fold change)
B22 | 3.4551
B23 | 3.9692
B24 | 3.0406

Same assay, conditions: repressor domain in dXR, repression of the HBEGF gene; abundance of domain in library after vs before diphtheria toxin selection

Molecule | Log2 (fold change)
B25 | 2.8082
B26 | 3.0229
B27 | 3.5686
B28 | 3.353
B29 | 2.7422
B30 | 2.7236
B31 | 2.9151
B32 | 2.6703
B33 | 2.5531
B34 | 2.0413
B35 | 2.2573
